Assay [1] addresses T1, KRS fragment composed of amino acid residues 1-200 in the N-terminus (human, UniProt Q15046 1-200).
T1 construct: also called fragment 2; denoted by 2
The experiment in a line: Western blot on lysate of A549 cells transformed with the KRS fragment 1-200 (2), probed with the scFv. (A western blot detects proteins with antibodies after separation by electrophoresis.)

In assay [2] the target is T2, KRS fragment with deletion of amino acids at positions 1-71 in the N-terminus (human, UniProt Q15046 72-597).
T2 construct: also called fragment 1; denoted by 1
The assay is described as follows: western blotting of lysate of transformed A549 cells. The protocol:
As described above, the scFv antibodies extracted from the periplasm were used to investigate using western blotting whether the scFv antibodies bound to the full-length KRS or respective KRS N-terminal fragments. Then, 30 μg of HCT116 cell lysate was electrophoresed through SDS PAGE, transferred onto PVDF membrane, and then blocked with 3% skim milk. Thereafter, the extracted scFv antibodies were added at 1.0 μg/μl, followed by incubation for 1 h. The unbound scFv antibodies were washed out, and for detection, the scFv binding with antigens were incubated with anti-HA secondary antibodies linked with horseradish peroxidase (HRP), and film sensitization was carried out using ECL reagent as a substrate in a dark room. The sensitized bands were compared with standard molecule markers to identify bands corresponding to sizes of the full-length KRS and the respective fragments.

The target in assay [3] is T3, myc-KRS T52D (active mutant) (human, UniProt Q15046 2-597).
T3 construct: Active mutant whose N-terminal region is exposed on the cell membrane; also called KRS-T52D mutant; T52D-KRS
The assay is described as follows: Immunofluorescence on A549 cells transfected with Myc tagged KRS-T52D, fixed with paraformaldehyde. The protocol: After incubation for 24 h, the cells were incubated using serum-free media (RPMI 1640 media) at 37° C. for 1 h. Thereafter, the cells were treated with 10 μg/ml laminin (L2020; Sigma) and then incubated at 37° C. for 1 h.
The prepared samples were washed with PBS (4° C.), fixed by the treatment with 4% paraformaldehyde for 10 min, and then washed. The samples were blocked with CAS block for 10 min, and treated with the scFv and Myc antibodies for 2 h. Thereafter, the unbound antibodies were washed out, and incubated with secondary antibodies for 1 h in a dark room. DAPI staining was performed for 10 min before mounting.

Assay [4] concerns the target T4, human lysyl-tRNA synthetase (KRS), full-length (human, UniProt Q15046 1-597).
T4 construct: also called native KRS; full-length KRS
The assay is described as follows: Western blot on lysate of A549 cells transformed with full-length KRS (F), probed with the scFv.

A further assay concerns the target T5, KRS 1-207 aa (human, UniProt Q15046 1-207).
T5 construct: also called KRS N-terminal region (SPR antigen)
The assay is described as follows: SPR Biacore 2000, KRS 1-207 immobilised on CM5, antibody 6.25-100 nM as analyte. The protocol:
After KRS was immobilized on a sensor chip (CM5, GE healthcare, US), antibody proteins (6.25-100 nM), which were serially diluted with HES buffer solution (10 mM HEPES, pH 7.4, 150 mM NaCl, 3 mM EDTA, 0.005% surfactant P20), were allowed to flow at a rate of 30 μl/min for 3 min, and 1 M NaCl/20 mM NaOH was allowed to flow at a rate of 30 μl/min for 3 min, thereby inducing the dissociation of proteins bound to the antigen. Mock IgG was used as control. Specific experiment conditions are as follows:
The affinity was obtained from the kinetic rate constants (ka and kd) and equilibrium dissociation constants (KD) by using BIA evaluation ver. 3.2 software.
Background: Surface plasmon resonance follows binding to a sensor surface in real time, without labels.

T5 sequence (Q15046 1-207): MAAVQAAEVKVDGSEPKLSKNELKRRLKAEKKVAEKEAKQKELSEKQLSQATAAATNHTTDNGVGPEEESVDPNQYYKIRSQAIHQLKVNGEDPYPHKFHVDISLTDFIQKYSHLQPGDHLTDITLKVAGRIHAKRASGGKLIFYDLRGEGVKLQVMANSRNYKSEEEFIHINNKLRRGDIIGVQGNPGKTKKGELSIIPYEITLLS
T2 sequence (Q15046 72-597, stated change not applied): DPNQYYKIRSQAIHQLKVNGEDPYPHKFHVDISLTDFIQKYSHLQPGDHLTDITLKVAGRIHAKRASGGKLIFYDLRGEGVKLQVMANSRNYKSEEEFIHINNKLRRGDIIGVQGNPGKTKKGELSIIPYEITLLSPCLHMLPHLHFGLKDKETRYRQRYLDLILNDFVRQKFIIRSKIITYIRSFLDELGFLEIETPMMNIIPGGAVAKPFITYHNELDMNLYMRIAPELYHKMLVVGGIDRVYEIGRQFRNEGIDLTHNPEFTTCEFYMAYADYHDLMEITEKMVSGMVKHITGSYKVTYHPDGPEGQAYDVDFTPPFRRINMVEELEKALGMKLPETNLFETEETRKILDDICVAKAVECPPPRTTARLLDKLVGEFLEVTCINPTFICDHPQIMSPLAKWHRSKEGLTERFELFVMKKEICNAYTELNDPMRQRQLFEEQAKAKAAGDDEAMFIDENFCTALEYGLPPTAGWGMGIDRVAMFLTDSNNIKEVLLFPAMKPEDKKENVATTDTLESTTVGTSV
T1 sequence (Q15046 1-200): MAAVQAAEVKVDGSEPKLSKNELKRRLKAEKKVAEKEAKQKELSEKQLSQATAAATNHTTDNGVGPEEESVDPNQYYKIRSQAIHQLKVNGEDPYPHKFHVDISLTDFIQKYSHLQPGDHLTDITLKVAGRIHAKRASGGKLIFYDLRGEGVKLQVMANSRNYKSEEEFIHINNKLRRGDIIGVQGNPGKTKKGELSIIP
T4 sequence (Q15046 whole entry): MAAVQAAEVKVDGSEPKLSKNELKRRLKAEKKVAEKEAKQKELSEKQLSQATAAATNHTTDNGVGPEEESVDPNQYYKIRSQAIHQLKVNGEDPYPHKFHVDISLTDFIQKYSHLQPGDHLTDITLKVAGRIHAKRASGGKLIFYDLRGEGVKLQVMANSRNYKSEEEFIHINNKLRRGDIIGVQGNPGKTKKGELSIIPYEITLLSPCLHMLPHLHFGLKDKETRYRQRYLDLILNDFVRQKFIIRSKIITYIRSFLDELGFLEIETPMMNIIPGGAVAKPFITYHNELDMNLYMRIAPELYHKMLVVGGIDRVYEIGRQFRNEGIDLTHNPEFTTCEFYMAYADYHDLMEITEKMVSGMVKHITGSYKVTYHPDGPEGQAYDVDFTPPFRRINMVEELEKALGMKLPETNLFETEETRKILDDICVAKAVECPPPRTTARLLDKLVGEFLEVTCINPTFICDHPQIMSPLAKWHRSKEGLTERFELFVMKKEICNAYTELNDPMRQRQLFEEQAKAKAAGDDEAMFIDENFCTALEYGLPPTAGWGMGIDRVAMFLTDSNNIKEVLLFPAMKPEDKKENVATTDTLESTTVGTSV
T3 sequence (Q15046 2-597 T52D): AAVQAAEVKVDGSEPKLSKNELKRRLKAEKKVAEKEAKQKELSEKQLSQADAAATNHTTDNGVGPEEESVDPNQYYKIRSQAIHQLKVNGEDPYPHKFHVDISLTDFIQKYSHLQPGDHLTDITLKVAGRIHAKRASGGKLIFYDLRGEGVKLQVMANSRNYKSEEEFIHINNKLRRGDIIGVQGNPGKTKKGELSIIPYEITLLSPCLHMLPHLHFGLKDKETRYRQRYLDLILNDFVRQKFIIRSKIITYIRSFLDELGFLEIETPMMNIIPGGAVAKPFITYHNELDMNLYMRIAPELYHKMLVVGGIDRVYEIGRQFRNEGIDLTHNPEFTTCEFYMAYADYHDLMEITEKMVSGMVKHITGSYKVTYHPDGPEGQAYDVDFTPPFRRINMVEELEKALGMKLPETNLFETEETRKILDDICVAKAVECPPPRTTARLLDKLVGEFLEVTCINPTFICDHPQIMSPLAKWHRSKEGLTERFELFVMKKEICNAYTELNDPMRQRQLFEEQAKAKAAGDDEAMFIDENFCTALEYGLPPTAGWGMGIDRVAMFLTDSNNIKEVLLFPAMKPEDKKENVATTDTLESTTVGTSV

B1: N5 scFv (scFv)
scFv: EVQLLESGGGLVQPGGSLRLSCAASGFTFSDYAMSWVRQAPGKGLEWVSWIYSGSGNKYYADSVKGRFTISRDNSKNTLYLQMNSLRAEDTAVYYCARMGLDFDYWGQGTLVTVSSGGGGSGGGGSGGGGSQSVLTQPPSASGTPGQRVTISCTGSSSNIGNNYVSWYQQLPGTAPKLLIYDDNQRPSGVPDRFSGSKSGTSASLAISGLRSEDEADYYCGTWDDSLSAYVFGGGTKLTVL
notes: HA-tagged scFv purified on Ni-NTA; also called scFv N5 clone
As to B1, the binding result is given as “binds” in assay [1], “no binding” in assay [2], “binds” in assay [3] and “binds” in assay [4].

B2: N5 IgG (antibody, V domains shown)
VH: EVQLLESGGGLVQPGGSLRLSCAASGFTFSDYAMSWVRQAPGKGLEWVSWIYSGSGNKYYADSVKGRFTISRDNSKNTLYLQMNSLRAEDTAVYYCARMGLDFDYWGQGTLVTVSS
VL: QSVLTQPPSASGTPGQRVTISCTGSSSNIGNNYVSWYQQLPGTAPKLLIYDDNQRPSGVPDRFSGSKSGTSASLAISGLRSEDEADYYCGTWDDSLSAYVFGGGTKLTVL
notes: IgG made from the scFv variable regions
In the assay with KRS 1-207 aa, B2 yielded a Kd of 1.05 nM, a koff of 0.00328 s⁻¹ and a kon of 3.13e+06 M⁻¹ s⁻¹.

In general, Kd refers to the free concentration of one partner at which half of the binding sites on the other are occupied at equilibrium, for simple one-to-one binding. For orientation: koff means the rate constant with which the complex falls apart. Higher therefore signals fast dissociation. By kon is commonly meant a measure of how fast the partners come together. Low readings indicate slow association, high ones fast association.

(Values after US20200102402A1 (ZYMEDI, published 2020).)
